The target in assay [1] is T1, Human OSM (human, UniProt P13725 26-221).
T1 construct: Recombinant human OSM; also called hOSM; human Oncostatin M
T1 sequence: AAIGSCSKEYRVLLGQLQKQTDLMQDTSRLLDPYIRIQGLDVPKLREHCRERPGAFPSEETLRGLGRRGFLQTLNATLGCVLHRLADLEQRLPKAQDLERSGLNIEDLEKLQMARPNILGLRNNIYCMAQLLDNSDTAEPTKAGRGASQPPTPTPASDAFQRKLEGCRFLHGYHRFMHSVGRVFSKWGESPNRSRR
Briefly: SPR (ProteOn XPR36 or Biacore T100), captured supernatant, OSM as analyte; hatched cell: separate experiment. Here is the method:
The initial kinetic analyses for the CDRH3 screen were carried out on the ProteOn XPR36 (Biorad Laboratories) and certain supernatants were selected for more accurate kinetic analysis on the BiaCore T100.
For the ProteOn analysis, anti-human IgG (GE Healthcare/Biacore BR-1008-39) was coupled to a GLM chip (Biorad Laboratories 176-5012) by primary amine coupling. The CDRH3 variants were captured directly on to this surface and recombinant human OSM was passed over the captured antibody surface at 256, 64, 16, 4 and 1 nM, with a buffer injection alone (i.e. 0 nM) used to double reference the binding curves. Following the OSM binding event, the capture surfaces were regenerated: with 3M MgCl₂ the regeneration removed the previously captured antibody ready for another cycle of capture and binding analysis. The data was then fitted to the 1:1 model (with mass transport) inherent to the ProteOn analysis software. The run was carried out using HBS-EP (Biacore/GE-Healthcare BR-1006-69) and the analysis temperature was 25° C.
A similar method was used for analysis of constructs using the Biacore T100, anti-human IgG (GE Healthcare/Biacore BR-1008-39) was coupled to a CM5 chip (GE Healthcare/Biacore BR-1006-68) by primary amine coupling, antibodies were captured on this surface and recombinant human OSM was passed over the captured antibody surface at 256, 64, 16, 4 and 1 nM, with a buffer injection alone (i.e. 0 nM) used to double reference the binding curves. Regeneration was by using pulses of 3M 3M MgCl₂ or 100 mM phosphoric acid or using both reagents. The data was fitted to the 1:1 model inherent to the Biacore T100 analysis software. The run was carried out using HBS-EP (Biacore/GE-Healthcare BR-1006-69) and the analysis temperature was 25° C.

The target in assay [2] is T2, Cynomolgus OSM (cynomolgus, UniProt A0A2K5VPC6 26-221).
T2 sequence: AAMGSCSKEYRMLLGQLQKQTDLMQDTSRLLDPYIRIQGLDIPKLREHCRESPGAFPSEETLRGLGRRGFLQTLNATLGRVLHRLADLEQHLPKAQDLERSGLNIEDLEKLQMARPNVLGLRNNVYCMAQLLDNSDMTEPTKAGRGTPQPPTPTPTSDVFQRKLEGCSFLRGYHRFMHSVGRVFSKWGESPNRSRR
Briefly: cell-based or functional assay.

Assay [3] deals with T1, Human OSM. Briefly: cell-based or functional assay.
Assay [4] deals with T1, Human OSM. Put plainly: BIAcore kinetics, transfection supernatant.
Assay [5] has as its target T2, Cynomolgus OSM. Briefly: BIAcore kinetics, purified antibody. (Surface plasmon resonance follows binding to a sensor surface in real time, without labels.)
Assay [6] concerns the target T1, Human OSM. Put plainly: BIAcore kinetics, purified antibody.
Assay [7] deals with T2, Cynomolgus OSM. Put plainly: BIAcore kinetics, transfection supernatant.
In assay [8] the target is T1, Human OSM. Briefly: BIAcore kinetics, transfection supernatant. This is another data set of the same source.
Assay [9] deals with T2, Cynomolgus OSM. Briefly: cell-based or functional assay. The source holds these as a separate data set.
The target in assay [10] is T1, Human OSM. Briefly: cell-based or functional assay. The source holds these as a separate data set.
Assay [11] has as its target T2, Cynomolgus OSM. Put plainly: cell-based or functional assay. This is another data set of the same source.
The target of assay [12] is T1, Human OSM. Put plainly: cell-based or functional assay. The source holds these as a separate data set.
The target in assay [13] is T2, Cynomolgus OSM. Put plainly: BIAcore kinetics.
In assay [14] the target is T1, Human OSM. Put plainly: BIAcore kinetics.
In assay [15] the target is T2, Cynomolgus OSM. Briefly: human gp130 ELISA, inhibition of OSM binding to gp130.
The target of assay [16] is T1, Human OSM. The description is as above.

We go through ten molecules from patent US20130251724A1 (GlaxoSmithKline, published 2013).

A word on the Kd: it is the free concentration of one partner at which half of the binding sites on the other are occupied at equilibrium, for simple one-to-one binding. The low end stands for a tighter complex, the high end for a looser complex. In general, koff refers to the rate constant with which the complex falls apart. High values mean a short-lived complex, low ones a long-lived complex. One may read the kon as a measure of how fast the partners come together. A low value points to slower complex formation. In general, IC50 refers to the concentration at which inhibition is half-maximal.

Where a chain is given by its changes, count along the chain named. In names and notes the source's numbering stands. Several values for one entry are separate records, joined by “and”; a condition that tells them apart may be missing. Equal values may be shown once. Read-outs that look alike come from different tables or passages of the source.

B1: Pos 98 Met (antibody, V domains shown)
VH: EVQLVESGGGLVQPGGSLRLSCAASGFTFSSYAMSWVRQAPGKGLEWVATISDGGSFTYYLDNVRGRFTISRDNAKNSLYLQMNSLRAEDTAVYYCARDVGMTTFWYFDVWGRGTLVTVSS
VL: DIVMTQSPDSLAVSLGERATINCRASKSVSAAGYNFMHWYQQKPGQPPKVLIYYASNLESGVPDRFSGSGSGTDFTLTISSLQAEDVAVYYCLHSREFPFTFGGGTKVEIKR
notes: also called CDRH3 H98>M
Take B1: the affinity in [1], expressed as Kd, was 6.93 nM.

B2: Humanised 10G8 H1L1 (antibody, V domains shown)
VH: B1 VH with V2M, S31N, M102H
VL: DIVMTQSPDSLAVSLGERATINCRASKSVSAAGYNFMHWYQQKPGQPPKVLIYYASNLESGVPDRFSGSGSGTDFTLTISSLQAEDVAVYYCLHSREFPFTFGGGTKVEIK
For the molecule B2, the “KB cell neutralisation assay, mean IC50” value in assay [2] is 0.01 µg/ml and 67 pM; in assay [3], 0.013 µg/ml and 83 pM. Moreover, the Kd in assay [4] amounted to 0.25 nM; in [5] it was 0.258 nM; in assay [6], 0.443 nM. The figures for the koff in [4], in assay [5] and in assay [6] were 9.99e-05 s⁻¹, 0.00011 s⁻¹ and 0.000166 s⁻¹, respectively. Besides, the kon in assay [4] worked out at 400000 M⁻¹ s⁻¹; in assay [5], 428000 M⁻¹ s⁻¹; in assay [6], 375000 M⁻¹ s⁻¹.

B3: Humanised 10G8 H0(IGHV3-23)L1(IGK4-1) (antibody, V domains shown)
VH: B1 VH with M102H
VL: B2 VL with Y54W, N57T, L58R
notes: built from the stated exchange of CDRL2; residue limits derived by me; also called H0 IGHV3_23 + L1 IGKV4_1; H0(huCDRH1)L1(huCDRL2)
As for B3, in assay [7], the Kd was 1.47 nM, the koff was determined as 0.000223 s⁻¹ and the kon amounted to 152000 M⁻¹ s⁻¹. For the same molecule, in assay [8], the Kd was 1.56 nM, the off-rate (koff) stood at 0.000247 s⁻¹ and the kon came to 159000 M⁻¹ s⁻¹. Also, the “KB cell neutralisation assay, mean IC50” value in assay [9] was 0.114 µg/ml and 760 pM. Moreover, the “KB cell neutralisation assay, mean IC50” value in [10] was 0.077 µg/ml and 513 pM.

B4: Humanised 10G8 H2L4 (antibody, V domains shown)
VH: B1 VH with S31N, M102H, R113S
VL: B2 VL with A88V, K107N
For the molecule B4, the “KB cell neutralisation assay, mean IC50” value was 0.016 µg/ml and 58 pM in assay [2]; 0.022 µg/ml and 147 pM in assay [3]. Besides, the Kd stood at 0.226 nM in assay [4], 0.205 nM in [5] and 0.356 nM in assay [6]. Moreover, the koff in [4] stood at 0.000101 s⁻¹; in [5], 9.01e-05 s⁻¹; in [6], 0.000135 s⁻¹. The kon in assay [4] was found to be 448000 M⁻¹ s⁻¹; in [5], 441000 M⁻¹ s⁻¹; in assay [6], 380000 M⁻¹ s⁻¹.

B5: Pos 99 His (antibody, V domains shown)
VH: B1 VH with M102H, T103H
VL: B1 VL
notes: also called CDRH3 T99>H
B5: in assay [1], binding was put at a Kd of 15.6 nM.

B6: Pos 100B His (antibody, V domains shown)
VH: B1 VH with M102H, W106H
VL: B1 VL
notes: also called CDRH3 W100B>H
For B6, in [1], binding was put at a Kd of 36.2 nM.

B7: Pos 99 Met (antibody, V domains shown)
VH: B1 VH with M102H, T103M
VL: B1 VL
notes: also called CDRH3 T99>M
With B7, binding in assay [1] was put at a Kd of 1.62 nM.

B8: Humanised 10G8 H0L1(IGKV4-1) (antibody, V domains shown)
VH: B1 VH with S31N, M102H
VL: B2 VL with Y54W, N57T, L58R
notes: built from the stated exchange of CDRL2; residue limits derived by me; Human gamma 1/kappa constant regions; also called H0L1(huCDRL2)
In assay [7], B8 registered a Kd of 1.41 nM, a koff of 0.000212 s⁻¹ and a kon of 150000 M⁻¹ s⁻¹. In [8], the Kd amounted to 1.37 nM, the off-rate constant (koff) amounted to 0.000221 s⁻¹ and the kon was 161000 M⁻¹ s⁻¹. In addition, the “KB cell neutralisation assay, mean IC50” value in [9] is 0.081 µg/ml and 540 pM. For the same molecule, in assay [10], the “KB cell neutralisation assay, mean IC50” value was 0.054 µg/ml and 360 pM.

B9: Pos 100B Met (antibody, V domains shown)
VH: B1 VH with M102H, W106M
VL: B1 VL
notes: also called CDRH3 W100B>M
In the case of B9, in [1], the affinity, expressed as Kd, was 40.3 nM.

B10: 3E3, murine anti-OSM mAb (antibody, V domains shown)
VH: EVQLVESGGDLVKPGGSLKLSCVPSGFTFSSYAMSWVRQTPEKRLEWVATISDGGSFTYYFANIQGRFTISRDNTKNNLYLQMNHLKSEDAGMYYCARDVGLTTFWYFDVWGTGTTVTVSS
VL: DIVLTQSPASLTISLGQRATISCRASKSVSPSGYDFMHWYQQKPGQPPKLLIKYASELESGVPGRFSGSGSGTDFTLNIHPVEEEDAATYFCQHSREFPFTFGGGTKLEIK
notes: Mouse hybridoma mAb; also called 3E3/A1; 3E3.A1
Regarding B10, the “KB cell neutralisation assay, mean IC50” value in assay [11] was 0.15 µg/ml and 1 nM; in assay [12], 0.054 µg/ml and 360 pM. The Kd came out at 3.28 nM in assay [13] and 1.3 nM in [14]. For the same molecule, the IC50 was 0.06 µg/mL and 0.4 nM in [15]; 0.19 µg/mL and 1.3 nM in assay [16].
